{"source": "paper PMC7232166", "about": "“Expression of Pleurotus ostreatus Laccase Gene in Pichia pastoris and Its Degradation of Corn Stover Lignin” (Microorganisms, 2020)", "experiment_in_all_cases": "purified protein", "key": {"[1]": {"substrate": "CCn1c(=NN=c2sc3cc(S(=O)(=O)O)ccc3n2CC)sc2cc(S(=O)(=O)O)ccc21", "assay_type": "biochemical, Pleurotus ostreatus", "conditions": "citrate-phosphate buffer, optimum pH 3.0, 25 °C stated for activity assay"}, "[2]": {"substrate": "COc1cccc(OC)c1O", "assay_type": "biochemical, Pleurotus ostreatus", "conditions": "citrate-phosphate buffer, optimum pH 3.0, 25 °C stated for activity assay"}, "[3]": {"substrate": "COc1ccccc1O", "conditions": "citrate-phosphate buffer, optimum pH 3.5, 25 °C stated for activity assay"}}}
{"protein": "Recombinant laccase X33-Lac-2 (Pleurotus ostreatus) (protein, about 57 kDa on SDS-PAGE) AIGPAGNMYIVNEDVSPDGFARSAVVARSVPATDPTPATASIPGVLVQGNKGDNFQLNVVNQLSDTTMLKTTSIHWHGFFQAGSSWADGPAFVTQCPVASGDSFLYNFNVPDQAGTFWYHSHLSTQYCDGLRGPFVVYDPSDPHLSLYDIDNADTVITLEDWYHIVAPQNAAIPTPDSTLINGKGRYAGGPTSPLAIINVESNKRYRFRLVSMSCDPNFTFSIDGHSLLVIEADAVNIVPITVDSIQIFAGQRYSFVLTANQAVDNYWIRANPNLGSTGFVGGINSAILRYAGATEDDPTTTSSTSTPLLETNLVPLENPGAPGPPVPGGADININLAMAFDFTTFELTINGVPFLPPTAPVLLQILSGASTAASLLPSGSIYELEANKVVEISMPALAVGGPHPFHLHGHTFDVIRSAGSTTYNFDTPARRDVVNTGTGANDNVTIRFVTDNPGPWFLHCHIDWHLEIGLAVVFAEDVTSISAPPAAWDDLCPIYNALSDNDKGGIVPS", "values": [{"measurement": "Km", "setting": "[1]", "result": "13.6 ± 2.9", "unit": "µM"}, {"measurement": "kcat", "setting": "[1]", "result": "311 ± 21", "unit": "s⁻¹"}, {"measurement": "kcat/Km", "setting": "[1]", "result": "2.28e+07", "unit": "M⁻¹ s⁻¹"}, {"measurement": "Km", "setting": "[2]", "result": "79.2 ± 18.3", "unit": "µM"}, {"measurement": "kcat", "setting": "[2]", "result": "19.8 ± 1.1", "unit": "s⁻¹"}, {"measurement": "kcat/Km", "setting": "[2]", "result": 250000, "unit": "M⁻¹ s⁻¹"}, {"measurement": "Km", "setting": "[3]", "result": "302.4 ± 26.0", "unit": "µM"}]}
